B1: Zinc finger protein RFP (Homo sapiens), P14373 (parent)
chain: MASGSVAECLQQETTCPVCLQYFAEPMMLDCGHNICCACLARCWGTAETNVSCPQCRETFPQRHMRPNRHLANVTQLVKQLRTERPSGPGGEMGVCEKHREPLKLYCEEDQMPICVVCDRSREHRGHSVLPLEEAVEGFKEQIQNQLDHLKRVKDLKKRRRAQGEQARAELLSLTQMEREKIVWEFEQLYHSLKEHEYRLLARLEELDLAIYNSINGAITQFSCNISHLSSLIAQLEEKQQQPTRELLQDIGDTLSRAERIRIPEPWITPPDLQEKIHIFAQKCLFLTESLKQFTEKMQSDMEKIQELREAQLYSVDVTLDPDTAYPSLILSDNLRQVRYSYLQQDLPDNPERFNLFPCVLGSPCFIAGRHYWEVEVGDKAKWTIGVCEDSVCRKGGVTSAPQNGFWAVSLWYGKEYWALTSPMTALPLRTPLQRVGIFLDYDAGEVSFYNVTERCHTFTFSHATFCGPVRPYFSLSYSGGKSAAPLIICPMSGIDGFSGHVGNHGHSMETSP

Variants of: B1
Conditions: with ubp7_human USP7, Q93009
ubp7_human USP7, Q93009, sequence (Q93009 whole entry, looked up): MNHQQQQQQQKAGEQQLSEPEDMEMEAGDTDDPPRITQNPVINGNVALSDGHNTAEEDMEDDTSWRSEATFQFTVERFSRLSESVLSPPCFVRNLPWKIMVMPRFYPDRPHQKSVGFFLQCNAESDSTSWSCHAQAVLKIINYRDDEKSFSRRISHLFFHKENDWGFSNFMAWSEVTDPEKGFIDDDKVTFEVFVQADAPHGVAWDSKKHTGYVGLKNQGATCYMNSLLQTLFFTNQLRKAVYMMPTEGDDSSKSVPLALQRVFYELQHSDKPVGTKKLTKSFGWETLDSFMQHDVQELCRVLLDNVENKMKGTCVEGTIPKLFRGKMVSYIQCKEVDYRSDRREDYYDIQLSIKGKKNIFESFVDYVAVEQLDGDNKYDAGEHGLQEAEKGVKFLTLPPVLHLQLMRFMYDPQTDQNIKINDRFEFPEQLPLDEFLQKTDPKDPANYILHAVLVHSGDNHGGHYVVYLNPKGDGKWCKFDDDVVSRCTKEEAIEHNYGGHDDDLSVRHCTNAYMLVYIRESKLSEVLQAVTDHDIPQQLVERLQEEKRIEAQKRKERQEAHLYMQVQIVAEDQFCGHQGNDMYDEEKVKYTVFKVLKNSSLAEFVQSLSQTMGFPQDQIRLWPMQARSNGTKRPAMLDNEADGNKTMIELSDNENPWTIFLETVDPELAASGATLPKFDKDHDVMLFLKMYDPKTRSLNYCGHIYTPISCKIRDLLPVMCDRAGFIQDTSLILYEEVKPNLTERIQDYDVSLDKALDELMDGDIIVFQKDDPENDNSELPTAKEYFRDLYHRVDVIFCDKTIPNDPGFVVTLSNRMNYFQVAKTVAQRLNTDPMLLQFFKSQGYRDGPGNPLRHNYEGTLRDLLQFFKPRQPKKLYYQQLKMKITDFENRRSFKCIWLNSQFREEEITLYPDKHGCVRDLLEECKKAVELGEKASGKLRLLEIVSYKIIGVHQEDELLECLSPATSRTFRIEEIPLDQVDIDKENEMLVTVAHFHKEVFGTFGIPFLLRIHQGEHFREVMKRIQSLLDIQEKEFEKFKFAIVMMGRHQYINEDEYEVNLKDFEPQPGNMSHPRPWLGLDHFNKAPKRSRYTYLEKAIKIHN

Row | Variant | effect of a mutation on the interaction
1 | MASGSVAECLQQETTCPVCLQYFAEPMMLDCGHNICCACLARCWGTAETNVSCPQCRETFPQRHMRPNRHLANVTQLVRQLRTERPSGPGGEMGVCEKHREPLKLYCEEDQMPICVVCDRSREHRGHSVLPLEEAVEGFKEQIQNQLDHLKRVKDLKKRRRAQGEQARAELLSLTQMEREKIVWEFEQLYHSLKEHEYRLLARLEELDLAIYNSINGAITQFSCNISHLSSLIAQLEEKQQQPTRELLQDIGDTLSRAERIRIPEPWITPPDLQEKIHIFAQKCLFLTESLKQFTEKMQSDMERIQELREAQLYSVDVTLDPDTAYPSLILSDNLRQVRYSYLQQDLPDNPERFNLFPCVLGSPCFIAGRHYWEVEVGDRARWTIGVCEDSVCRKGGVTSAPQNGFWAVSLWYGKEYWALTSPMTALPLRTPLQRVGIFLDYDAGEVSFYNVTERCHTFTFSHATFCGPVRPYFSLSYSGGKSAAPLIICPMSGIDGFSGHVGNHGHSMETSP [K79R;K304R;K380R;K382R] | disrupting interaction strength

Variants of: B1
Conditions: with ubp7_human USP7, Q93009
Remark: another data set of the same source

Row | Variant | effect of a mutation on the interaction
2 | MASGSVAECLQQETTCPVCLQYFAEPMMLDCGHNICCACLARCWGTAETNVSCPQCRETFPQRHMRPNRHLANVTQLVRQLRTERPSGPGGEMGVCEKHREPLKLYCEEDQMPICVVCDRSREHRGHSVLPLEEAVEGFKEQIQNQLDHLKRVKDLKKRRRAQGEQARAELLSLTQMEREKIVWEFEQLYHSLKEHEYRLLARLEELDLAIYNSINGAITQFSCNISHLSSLIAQLEEKQQQPTRELLQDIGDTLSRAERIRIPEPWITPPDLQEKIHIFAQKCLFLTESLKQFTEKMQSDMERIQELREAQLYSVDVTLDPDTAYPSLILSDNLRQVRYSYLQQDLPDNPERFNLFPCVLGSPCFIAGRHYWEVEVGDRARWTIGVCEDSVCRKGGVTSAPQNGFWAVSLWYGKEYWALTSPMTALPLRTPLQRVGIFLDYDAGEVSFYNVTERCHTFTFSHATFCGPVRPYFSLSYSGGKSAAPLIICPMSGIDGFSGHVGNHGHSMETSP [K79R;K304R;K380R;K382R] | decreasing interaction strength
3 | MASGSVAECLQQETTCPVCLQYFAEPMMLDCGHNICCACLARCWGTAETNVSCPQCRETFPQRHMRPNRHLANVTQLVKQLRTERPSGPGGEMGVAEKAREPLKLYCEEDQMPICVVCDRSREHRGHSVLPLEEAVEGFKEQIQNQLDHLKRVKDLKKRRRAQGEQARAELLSLTQMEREKIVWEFEQLYHSLKEHEYRLLARLEELDLAIYNSINGAITQFSCNISHLSSLIAQLEEKQQQPTRELLQDIGDTLSRAERIRIPEPWITPPDLQEKIHIFAQKCLFLTESLKQFTEKMQSDMEKIQELREAQLYSVDVTLDPDTAYPSLILSDNLRQVRYSYLQQDLPDNPERFNLFPCVLGSPCFIAGRHYWEVEVGDKAKWTIGVCEDSVCRKGGVTSAPQNGFWAVSLWYGKEYWALTSPMTALPLRTPLQRVGIFLDYDAGEVSFYNVTERCHTFTFSHATFCGPVRPYFSLSYSGGKSAAPLIICPMSGIDGFSGHVGNHGHSMETSP [C96A;H99A] | with no effect
4 | MASGSVAECLQQETTCPVCLQYFAEPMMLDCGHNICCACLARCWGTAETNVSCPQCRETFPQRHMRPNRHLANVTQLVKQLRTERPSGPGGEMGVCEKHREPLKLYCEEDQMPICVVADRSREARGHSVLPLEEAVEGFKEQIQNQLDHLKRVKDLKKRRRAQGEQARAELLSLTQMEREKIVWEFEQLYHSLKEHEYRLLARLEELDLAIYNSINGAITQFSCNISHLSSLIAQLEEKQQQPTRELLQDIGDTLSRAERIRIPEPWITPPDLQEKIHIFAQKCLFLTESLKQFTEKMQSDMEKIQELREAQLYSVDVTLDPDTAYPSLILSDNLRQVRYSYLQQDLPDNPERFNLFPCVLGSPCFIAGRHYWEVEVGDKAKWTIGVCEDSVCRKGGVTSAPQNGFWAVSLWYGKEYWALTSPMTALPLRTPLQRVGIFLDYDAGEVSFYNVTERCHTFTFSHATFCGPVRPYFSLSYSGGKSAAPLIICPMSGIDGFSGHVGNHGHSMETSP [C118A;H124A] | with no effect

— IntAct's records for PubMed 24144979
